Assay results taken from the DeepSol protein solubility set.

Test: soluble on expression in E. coli; label from the status in PepcDB or PDB records
For “MEEIPEHEGYKFRVARPRTDFRGTHQYASPNAHMLIELGRHDDIWSLMYMVAESFVELPWTRCEETEVEHYMNQSTILRLFSDEKNPTRLNADMRRQLDEIDSMLKASKYYDSPNYDAVYQFFKDSMAKAKVTWDTPFDWEIGNTLSEETSKGVKRKMGGPWENPGLFFTVLQ”, the “soluble on expression in E. coli” value was “not soluble”. For “MGSDKIHHHHHHMTAATSVRAQAREEDLSVKEILDSRWFQPEMFKTLDYVKGFVGAKVIFQMLKLGVFDDLLAGKTLEEIASGRSLDPYLLRTVFEYLSVEGLLVKEGRGGGASFRLSDYGSRIKHYEGWFNILIGGYDNIFSNIGAMLEEGIGGYKRDGKWVGVGSCQISKYDTIPITKAFIESVKPDAKQIVDFGCGNALYLCTLAKELGDIKAVGIEPDTSAYEAGLKKVAEMGLQDQVRLVNVDALDYEIDEQPDFILFGFVLQEIIAQIGRPAFIEYLRKLGRKFADSYLMVMEVDYDIDNREVMHSPMGRGYYNPYFLLHPFTNQLLLPKREWDEIFAQAGYDVVRDEVTSPKADPSGFGICYVLKYRGAHC”, the “soluble on expression in E. coli” value was “not soluble”. For “MSLANLKVNLYGMEFLNPIMTAAGPGAKDGALCQEAAKGGAGAICTKTISVLPADVPRPCMAKTNSGFLNTELWSELPKEQWIEEEYKKVKETGLPVIVSMGYSAEQIAEVAPLVKPYADAVELSTHYVGTDVAPIVNALKAAKAVLDVPVFMKMSPHTDIQTIAKAVEEAGADGLVMINSFGPCMAIDVNTGYPIMGSKAGYGWLSGAPIRPLAIRCIYEASQVVNIPIIGVGGITCGKDVAEMMMAGASAVQVCTEAILKGPSIYGKIAKELNEFLDENGEGHHHHHH”, the “soluble on expression in E. coli” value was “not soluble”. With “MENHDLVIVGGGISGLQAAISAKKSGVQDIVLIEAEDSLGGILNQCIYTGFGMEDFKEELTGTEYVQRFIDEFLELNIEYKLNTTVIKISKNKVITAVSPNEGIIEIKACSIIFAAGAVEKPQKSIRVLTKDLSGIYSALTVGRFINIHGYMPGKSIVILGANKIGNALANRIFIEGGKVKAVIDSEVGFDERNEIIEFLAEINIPFLYNYNIVKIKGSERIEGIYISDENGEKFISCDTLILALKLNPNDKILREANIKILNKERNEINTNVPGVFIVGNALYIHESNEGSPLENRKAGEMSAEYIRATLLEHHHHHH” the “soluble on expression in E. coli” value was “not soluble”. For “MSDVPHLRFPEFSGEWEEHTLSEYLEFKNGLNPDAKRIGSGLPFISVMDILSEGVINYDNIRGKVNATEKEIECFGVKDGDLLFQRSSETLEDVGRANVYMDNRTAIYGGFVIRGRKIGNYDPLFFKYLLATPLARKRTCRMGAGAQHFNIGQEGLSKISLYFPSIEEQRKIAEFLSLIDERIATQNKIIEDLKKLKSAISLNVLHSDKWEQFKIKDIAQIGRGRVISSIEIGQQKSPTYPVYSSQTSNDGIMGYLDDYMFEGEYISWTTDGANAGTVFYRNGKFNCTNVCGLLKLRKEFDTHFVSLVLAEATKKYVSINLANPKLMNNTMGNIQIRLPKLEEQKRISIVFRVLQRLWTVHNSLLTEYTKQEQYLLSQMFILEHHHHHH”, the “soluble on expression in E. coli” value was “not soluble”. With “MGSDKIHHHHHHYATVEPLHINRFDKDLFRLIDTGDTTLQPELIKQYPEMLDIIGKGILNLQTIETPGFFEKMRNYYSEPTLKGLYRDAITQYDSVEDIEKSLGYGFAYLKENFPSMQIPAIYMHVSGFNQNVLVGDSLLSLSIDKYMGKDYPLYQDFFYDSQKLKMQRGLVVPDYLAGWLMSEYPFAGKENVLLDRMIYEGKIKYLLSQALGVPDAAELMGYTEQAYNWCKDNEGTIWKAIIERKHLYTPDQLTTSQYFEDTPTIFPGNDAPGNIGTWIGWQIINQYIKETGSTPEALMQNNDAQEILTASKYKPL” the “soluble on expression in E. coli” value was “not soluble”. With “SYETSQHNLDAVEAVLSRLQKQTGEMAAYMVPVGYRALCVSQRESMQALRCSFVQGQSQPLLRGASSKVMLAYMPAARCEKILRYFGEDPTLDKWQSEFEKIRRHGYAVSTSEIDPGVSGISAPVMKGSKLIGAISVMAPAHRVESNKQRIILHVLQAARALPPER” the “soluble on expression in E. coli” value was “not soluble”. With “QQFPNECQLDQLNALEPSHVLKAEAGRIEVWDHHAPQLRCSGVSFVRYIIESKGLYLPSFFSTAKLSFVAKGEGLMGRVVPGCAETFQDSSVFQPGGGSPFGEGQGQGQQGQGQGHQGQGQGQQGQQGQQGQQSQGQGFRDMHQKVEHIRTGDTIATHPGVAQWFYNDGNQPLVIVSVLDLASHQNQLDRNPRPFYLAGNNPQGQVWIEGREQQPQKNILNGFTPEVLAKAFKIDVRTAQQLQNQQDNRGNIIRVQGPFSVIRPPLRSQRPQEEVNGLEETICSARCTDNLDDPSNADVYKPQLGYISTLNSYDLPILRFLRLSALRGSIRQNAMVLPQWNANANAVLYVTDGEAHVQVVNDNGDRVFDGQVSQGQLLSIPQGFSVVKRATSEQFRWIEFKTNANAQINTLAGRTSVLRGLPLEVISNGYQISLEEARRVKFNTIETTLTHSSGPASYGGPRKADA” the “soluble on expression in E. coli” value was “soluble”. With “DHSARPKLGIDLQGGTRVTLVPQGQNPTEDQLAQAKSILENRVNGMGVSGASVVSDGNTLVITVPGEDTTQARALGQTSQLLFRPVAKPDAPDTTKLLDAMKEMANRWVEVGVLTPQEANDALSNTAKALAQSEGKKPEDAKAPTVTAKEPKEPANSIESEQLRNKVLEVMKKDRQSTDATTQLSASSLLKCDDTPDPLQGTDDPTKPLVACDPSSGQVYVLSPAPLLQGETDQANGKRLTGNEIDTNRPITGGLNPQTGQMEIGFSFKSDNGDQGSATWAKLTQEYLQKQVAITLDSK” the “soluble on expression in E. coli” value was “not soluble”. In the case of “MAHHHHHHMEHVRHLLDVIMGRATLDPGVARVVSVFFNQKSSGFSPQELMQFLVTCAFHVKGMTPLEAARFCFFALRRDMEHAIARDDVIFMLEHSLIEHTIEMPEMELRRRVVDIFGDTTYVIFDDFVRYFIHNYAMWYAFGVPVTVSGERSGRGGDVAPQLNPTLTLLKADGEPNAKARAPTAATTVSTSGAAPVSASTSTTAATPAAAITTATTQKTVPHDESVWRTFIARVQHSNKAFSVTAHVNDTIFDVMVMVQNSTGIRAACQEWRAGNVALDPKCRLGSTELGLGGNEVAAPEVIIIARDEAVRLVMVYKEKGFRWEVRLPSSEKVLKLRALVQHKTMIPLTRCVLRAHGSCLMDRHPLAHYNLQDGDVVTITQE”, the “soluble on expression in E. coli” value is reported as “not soluble”. With “MSLNGGVTELSVWSGFTENDGKVVQSIADDFNKSQSNVKVTIEQNPWNVINDKLLSSISAGNGPDVVTYQPDGAKGFIKQGAIVSTDDFYSDSSNETSHYRKNVVKDGEVDGKHYGVPMGHAPYSVYFNKAIFDAAGITEDQYPKTWDDLAALASKLTVDKDGDGTPDQYGIALADKDAGYLPIFLQGAGTDLVVDGKANLTSKKSKDTLTWIRDNFYAKKSSPSNLSLVDAQTLFCSGKAAMFWIGPWIVNAAKEKGIETGTFEMPKGPEKQVTEVAANYWYTTSQVDGNDAKKKAAYAWMKFFNNKKNQITWAVKANYPPNRTDVTADDMKSNNFVSQISPYMDHSSLLLGSVPSGFADVQSELNALGPKISESTGDLTDILQKSNDKIQGYIEEGHHHHHH” the “soluble on expression in E. coli” value was “soluble”. With “SMSPEPDCQKQFQAAVSVIQNLPKNGSYRPSYEEMLRFYSYYKQATMGPCLVPRPGFWDPIGRYKWDAWNSLGKMSREEAMSAYITEMKLVAQKVIDTVPLGEVAE” the “soluble on expression in E. coli” value was “soluble”. In the case of “MADYNIPHFQNDLGYKIIEIGVKEFMCVGATQPFDHPHIFIDMGSTDEKICPYCSTLYRYDPSLSYNQTNPTGCLYNPK”, the “soluble on expression in E. coli” value is reported as “not soluble”. In the case of “MGSDKIHHHHHHMDFLDFEKVFSFYSKATKKGFSPFFVPALEKAEEPAGNFFLDRKGNLFSIREDFTKTVLNHRKRYSPDSQIKVWYADFVYRYSGSDLVAEYQLGLEKVPRNSLDDSLEVLEIIVESASEFFEGPVIVEIGHTGVYEDLLKEIPKDLHEKVLNLIDTKNLAEIEFLSHMKKIDLSRVEKIIEDSIYRRSPEHLKTMDLPLSVREDLLSASSFLQEKFPTVSVEIDLTLARTIEEYCGLIFTIYDTSSSRLVAAGGEYTVNGEKGVGGSIFLEGKTC”, the “soluble on expression in E. coli” value is reported as “not soluble”.
